Source: US6313088A, “8-[(2-hydroxy-4-methoxy benzoyl) amino]-octanoic acid compositions for delivering active agents” (Emisphere Technologies, Inc., priority 1997, dated 2001)

Set-up: species or system Rats
Conditions: rat, in vivo, 1 mg/kg
Method: Rats were administered the dosing composition by intracolonic instillation.

interferon
Mean peak serum interferon concentration: 79±100
